By Kd is commonly meant the concentration at which binding is half-saturated. Read a high Kd as a looser complex.

Numbering of substitutions follows the chain as printed. Names and notes keep the numbering of the source.

This passage reports Kd results from publication PMC10786891, “Massively parallel profiling of RNA-targeting CRISPR-Cas13d”.

B1: target 1 insC 3' of 22,insC 3' of 5 (mixed)
RNA 1: CACCCGUGCAAAAAUGCAGGGGUCUAAAACUGAGCGGAUAACCUCUCUAUGG
RNA 2: GGGAAUGGAUCCACAUCUACGAAUUCGUACCCAUAGAGAGGUUAUCCGCCUCACCGAGAUCGGAAGAGCACACGU
B2: target 1 U11A,G17U (mixed)
RNA 1: B1 RNA 1
RNA 2: GGGAAUGGAUCCACAUCUACGAAUUCGUACCAUAUAGAGGAUAUCCGCUCACCGAGAUCGGAAGAGCACACGU
B3: target 1 insU 3' of 17,insG 3' of 2 (mixed)
RNA 1: B1 RNA 1
RNA 2: B1 RNA 2 with C32A, A33U, U34A, A35G, G36U, C50U, U51C, C52G
B4: target 2 MT 5'PFS UUG 3'PFS CCA (mixed)
RNA 1: CACCCGUGCAAAAUUGCAGGGGUCUAAAACCUUCUCCAAAUUGUUUCAUCCU
RNA 2: GGGAAUGGAUCCACAUCUACGAAUUCUUGAGGAUGAAACAAUUUGGAGAAGCCAAGAUCGGAAGAGCACACGU
B5: target 2 MT 5'PFS UCA 3'PFS CCU (mixed)
RNA 1: B4 RNA 1
RNA 2: B4 RNA 2 with U28C, G29A, A54U
B6: target 2 MT 5'PFS GUC 3'PFS UCA (mixed)
RNA 1: B4 RNA 1
RNA 2: B4 RNA 2 with U27G, G29C, C52U
B7: target 2 MT 5'PFS GCC 3'PFS UGC (mixed)
RNA 1: B4 RNA 1
RNA 2: B4 RNA 2 with U27G, U28C, G29C, C52U, C53G, A54C
B8: target 2 MT 5'PFS CUU 3'PFS AUA (mixed)
RNA 1: B4 RNA 1
RNA 2: B4 RNA 2 with U27C, G29U, C52A, C53U
B9: target 2 MT 5'PFS UGG 3'PFS AAA (mixed)
RNA 1: B4 RNA 1
RNA 2: B4 RNA 2 with U28G, C52A, C53A
B10: target 2 MT 5'PFS UGU 3'PFS AUU (mixed)
RNA 1: B4 RNA 1
RNA 2: B4 RNA 2 with U28G, G29U, C52A, C53U, A54U
B11: target 2 MT 5'PFS GUC 3'PFS UCG (mixed)
RNA 1: B4 RNA 1
RNA 2: B4 RNA 2 with U27G, G29C, C52U, A54G
B12: target 2 MT 5'PFS UCA 3'PFS CCG (mixed)
RNA 1: B4 RNA 1
RNA 2: B4 RNA 2 with U28C, G29A, A54G
B13: target 2 MT 5'PFS UGG 3'PFS AAU (mixed)
RNA 1: B4 RNA 1
RNA 2: B4 RNA 2 with U28G, C52A, C53A, A54U
B14: target 2 MT 5'PFS UAC 3'PFS AUC (mixed)
RNA 1: B4 RNA 1
RNA 2: B4 RNA 2 with U28A, G29C, C52A, C53U, A54C
B15: target 2 MT 5'PFS GCC 3'PFS UGA (mixed)
RNA 1: B4 RNA 1
RNA 2: B4 RNA 2 with U27G, U28C, G29C, C52U, C53G
B16: target 2 MT 5'PFS UCA 3'PFS CCA (mixed)
RNA 1: B4 RNA 1
RNA 2: B4 RNA 2 with U28C, G29A
B17: target 2 MT 5'PFS GGU 3'PFS CCG (mixed)
RNA 1: B4 RNA 1
RNA 2: B4 RNA 2 with U27G, U28G, G29U, A54G
B18: target 2 MT 5'PFS AAG 3'PFS AAA (mixed)
RNA 1: B4 RNA 1
RNA 2: B4 RNA 2 with U27A, U28A, C52A, C53A
B19: target 2 MT 5'PFS GCG 3'PFS AAA (mixed)
RNA 1: B4 RNA 1
RNA 2: B4 RNA 2 with U27G, U28C, C52A, C53A
B20: target 2 MT 5'PFS CUC 3'PFS CAG (mixed)
RNA 1: B4 RNA 1
RNA 2: B4 RNA 2 with U27C, G29C, C53A, A54G
B21: target 2 MT 5'PFS CUC 3'PFS CAA (mixed)
RNA 1: B4 RNA 1
RNA 2: B4 RNA 2 with U27C, G29C, C53A
B22: target 2 MT 5'PFS CUC 3'PFS CAU (mixed)
RNA 1: B4 RNA 1
RNA 2: B4 RNA 2 with U27C, G29C, C53A, A54U
B23: target 2 MT 5'PFS GCG 3'PFS CUC (mixed)
RNA 1: B4 RNA 1
RNA 2: B4 RNA 2 with U27G, U28C, C53U, A54C
B24: target 2 MT 5'PFS GGU 3'PFS CCA (mixed)
RNA 1: B4 RNA 1
RNA 2: B4 RNA 2 with U27G, U28G, G29U
B25: target 2 MT 5'PFS CGU 3'PFS CCG (mixed)
RNA 1: B4 RNA 1
RNA 2: B4 RNA 2 with U27C, U28G, G29U, A54G
B26: target 2 MT 5'PFS UUA 3'PFS UAA (mixed)
RNA 1: B4 RNA 1
RNA 2: B4 RNA 2 with G29A, C52U, C53A
B27: target 2 MT 5'PFS AAU 3'PFS UCC (mixed)
RNA 1: B4 RNA 1
RNA 2: B4 RNA 2 with U27A, U28A, G29U, C52U, A54C
B28: target 2 MT 5'PFS GCG 3'PFS CUU (mixed)
RNA 1: B4 RNA 1
RNA 2: B4 RNA 2 with U27G, U28C, C53U, A54U
B29: target 2 MT 5'PFS GUC 3'PFS UCU (mixed)
RNA 1: B4 RNA 1
RNA 2: B4 RNA 2 with U27G, G29C, C52U, A54U
B30: target 2 MT 5'PFS CUC 3'PFS CAC (mixed)
RNA 1: B4 RNA 1
RNA 2: B4 RNA 2 with U27C, G29C, C53A, A54C
B31: target 2 MT 5'PFS CAG 3'PFS ACU (mixed)
RNA 1: B4 RNA 1
RNA 2: B4 RNA 2 with U27C, U28A, C52A, A54U
B32: target 2 MT 5'PFS UAU 3'PFS UAU (mixed)
RNA 1: B4 RNA 1
RNA 2: B4 RNA 2 with U28A, G29U, C52U, C53A, A54U
B33: target 2 MT 5'PFS AUU 3'PFS AUU (mixed)
RNA 1: B4 RNA 1
RNA 2: B4 RNA 2 with U27A, G29U, C52A, C53U, A54U
B34: target 2 MT 5'PFS GUC 3'PFS UCC (mixed)
RNA 1: B4 RNA 1
RNA 2: B4 RNA 2 with U27G, G29C, C52U, A54C
B35: target 2 MT 5'PFS UAC 3'PFS AUA (mixed)
RNA 1: B4 RNA 1
RNA 2: B4 RNA 2 with U28A, G29C, C52A, C53U

The data set concerns the target T1, EsCas13d, nuclease-dead (Eubacterium siraeum, UniProt B0MS50, R295A;H300A;R849A;H854A).
T1 sequence: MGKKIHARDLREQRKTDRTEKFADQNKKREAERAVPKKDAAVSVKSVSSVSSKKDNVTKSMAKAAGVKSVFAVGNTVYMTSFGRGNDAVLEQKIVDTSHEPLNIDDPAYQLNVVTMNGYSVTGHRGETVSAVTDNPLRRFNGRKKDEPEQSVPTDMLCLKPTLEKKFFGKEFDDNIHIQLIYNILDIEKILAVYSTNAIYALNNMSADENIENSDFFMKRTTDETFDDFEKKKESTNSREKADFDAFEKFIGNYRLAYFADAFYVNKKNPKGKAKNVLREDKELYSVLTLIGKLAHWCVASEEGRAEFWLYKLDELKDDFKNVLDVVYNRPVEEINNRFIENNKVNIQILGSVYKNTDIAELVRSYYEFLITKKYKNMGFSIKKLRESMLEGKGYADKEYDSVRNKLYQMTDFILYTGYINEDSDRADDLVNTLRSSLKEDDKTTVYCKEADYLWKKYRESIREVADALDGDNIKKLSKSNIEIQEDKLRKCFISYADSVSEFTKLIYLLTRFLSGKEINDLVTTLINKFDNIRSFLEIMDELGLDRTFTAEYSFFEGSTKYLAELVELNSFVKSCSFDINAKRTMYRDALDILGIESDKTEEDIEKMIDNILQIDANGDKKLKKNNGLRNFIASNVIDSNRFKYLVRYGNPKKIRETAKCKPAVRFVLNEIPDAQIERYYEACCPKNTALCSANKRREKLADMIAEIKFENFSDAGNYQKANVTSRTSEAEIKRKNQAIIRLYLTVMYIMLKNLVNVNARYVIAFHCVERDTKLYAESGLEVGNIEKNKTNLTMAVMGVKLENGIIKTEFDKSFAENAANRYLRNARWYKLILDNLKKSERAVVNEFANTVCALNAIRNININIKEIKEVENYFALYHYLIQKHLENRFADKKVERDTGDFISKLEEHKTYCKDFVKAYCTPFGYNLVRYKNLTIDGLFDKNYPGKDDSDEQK
In words: crRNA (strand 1, pre-loaded); Mg2+; 40 mM Tris-HCl pH 7.5, 150 mM NaCl, 6 mM MgCl2, 1 mM DTT, 0.1% Tween-20, 0.2 mg/ml BSA; 25 C; 10 min per concentration, then washed. The conditions noted are these: tags: His6-TwinStrep-SUMO cleaved; N-terminal SNAP kept (SNAP-Surface 488); label: 3' end held by stalled T7 RNA polymerase.
B1 showed a Kd of 60 ± 30 nM.
For B2, binding was put at a Kd of 84 ± 29 nM.
B3 returned a Kd of 19.8 ± 2.5 nM.
The molecule B4 gave a Kd of 37 ± 10 nM.
Consider B5, for which the Kd was about 30 nM.
As for B6, the Kd turned out to be 17 ± 5 nM.
Turning to B7, the Kd turned out to be 10.9 ± 1.7 nM.
As to B8, the Kd worked out at 4.7 ± 0.7 nM.
The result for B9 reads 3.3 ± 0.4 nM; that for B10, 11.9 ± 1.7 nM; that for B11, 28 ± 6 nM.
Consider B12, for which the Kd is 5 ± 0.9 nM.
Molecule B13 gave a Kd of 5.9 ± 0.7 nM.
For B14, the Kd was determined as 7 ± 1.7 nM.
In turn, B15 gave a Kd of 17 ± 5 nM.
The result for B16 reads 10 ± 4 nM; that for B17, 17.4 ± 1.8 nM; that for B18, 3.7 ± 0.7 nM.
In the case of B19, binding was put at a Kd of 9.9 ± 2.3 nM.
Regarding B20, the Kd amounted to 1.93 ± 0.21 nM.
The value for B21 was 1.72 ± 0.2 nM; that for B22 was 1.82 ± 0.19 nM; that for B23 was 21 ± 4 nM.
The result for B24 reads 24 ± 5 nM.
B25 showed a dissociation constant Kd of about 40 nM.
The result for B26 reads 17 ± 4 nM; that for B27, 11.8 ± 1.9 nM; that for B28, 24 ± 6 nM.
As for B29, the Kd was 25.4 ± 3.3 nM.
B30 had a Kd of 3.9 ± 0.9 nM.
Take B31: the Kd amounted to 6.2 ± 2.2 nM.
On to B32, for which binding was characterised by a dissociation constant (Kd) of 35 ± 8 nM.
Molecule B33 showed a Kd of 5.5 ± 0.4 nM.
For B34, the equilibrium dissociation constant (Kd) came to 42 ± 6 nM.
The result for B35 reads 4.9 ± 0.7 nM.
